# Reference: patent US20240301046A1 (MABWELL THERAPEUTICS, published 2024)
# Changes are numbered by the printed parent chain. Like-named read-outs stand apart in the source and are kept apart here.
# B1: 17D08A (antibody, V domains shown)
# VH: EVQLVESGGGLVQPGGSLKLSCAASGFTFSGSAIHWVRQASGKGLEWVGRIRSKVNSYATAYAASVKGRFTISRDDSKNTAYLQMNSLKTEDTAVYYCTRHAPNFDAFDIWGQGTMVTVSS
# VL: QSVLTQPPSVSAAPGQKVTISCSGYSSNIGNHYVSWYQQLPGTAPKFFIYDNNKRPSGIPDRFSGSKSGTSATLGITGLQTGDEADYYCGTWDSSLITYVFGTGTKVTVL
# B2: 15M13A (antibody, V domains shown)
# VH: QVTLKESGPGILQPSQTLSLTCSFSGFSLSTFGMGVGWIRQPSGKGLEWLAHIWWDDDKYYNPALKSRLTISKDTSKNQVFLKIANVDTADTATYYCARLGYYPYWFFDVWGTGTTVTVSS
# VL: B1 VL with Y25S, F47L, F48L, S94T, I97S, T98A, Y99V, T103G, V107L
# B3: 21G10A (antibody, V domains shown)
# VH: EVQLVESGGGSVQPGGSLRLSCAASGFTFSSYWMHWVRQAPGKGLVWVSRINSDGSITTYADSVKGRFTISRDNAKNTLYLQMNSLRAEDTAVYYCARGGGSLDYWGQGTLVTVSS
# VL: B1 VL with Y25S, H32Y, F47L, F48L, I97S, T98A, Y99V, T103G, V107L
# B4: 18F06A (antibody, V domains shown)
# VH: B3 VH with S11L, S53R, I57T, T59S, S85R, S102A, L103F, Y105I, L111M
# VL: QSVLTQPPSVSAAPGQKVTISCSGSSSNIGNYYVSWYQQLPGTAPKLLIYDNNKRPSGIPDRFSASKSGTSATLGITGLQTGDEADYYCGTWDDSLSAVVFGGGTKLTVL
# B5: 17H05A (antibody, V domains shown)
# VH: B3 VH with A40V, T59S, D90N
# VL: B4 VL with N53H, A65G, D94S
# B6: 21F12A (antibody, V domains shown)
# VH: B3 VH with V5A, A40V, I57T
# VL: B4 VL with A65G, Q80R, D94S
# B7: 20O11A (antibody, V domains shown)
# VH: B3 VH with S11L, V46A, S49A, I57S, T59S, S102L, L103F
# VL: B4 VL with Y32H, A65G, D94S, S97G, V100L
# B8: 22H10A (antibody, V domains shown)
# VH: EMQLVESGGGLVKPGGSLRLSCAASGFTFSSYSMNWVRQAPGKGLEWVSSISTRKNYIYYADSVQGRFIFSRDNAKNALYLQMNSLRAEDSAVYYCTRGGYIRSPNAFDIWGQGTMVTVSS
# VL: QTVVTQEPSLTVSPGGTVTLTCASSTGTVTSGYFPNWLQQKPGQAPRALIYSINNKHFWTPARFSGSLLGGKAALTLSGVQPEDEAEYYCLLYYGGAWVFGGGTKLTVL
# B9: 18P01A(mIgG2a) (antibody)
# heavy: EVQLVESGGGLVQPGGSLKLSCAVSGFTFSGSAMHWVRQASGKGLEWVGRIRSKANSYATAYAASVKGRFTISRDDSKNTAFLQMNSLKTEDTAVYYCTSHAPNFDAFDIWGQGTMVTVSSASTKGPSVFPLAPCSRSTSESTAALGCLVKDYFPEPVTVSWNSGALTSGVHTFPAVLQSSGLYSLSSVVTVPSSNFGTQTYTCNVDHKPSNTKVDKTVERKCPPCKCPAPNLLGGPSVFIFPPKIKDVLMISLSPIVTCVVVDVSEDDPDVQISWFVNNVEVHTAQTQTHREDYNSTLRVVSALPIQHQDWMSGKEFKCKVNNKDLPAPIERTISKPKGSVRAPQVYVLPPPEEEMTKKQVTLTCMVTDFMPEDIYVEWTNNGKTELNYKNTEPVLDSDGSYFMYSKLRVEKKNWVERNSYSCSVVHEGLHNHHTTKSFSRTPGK
# light: QSVLTQPPSVSAAPGQKVTISCSGSSSNIGNHYVSWYQQLPGTAPKFFIYDNSKRPSGIPDRFSGSKSGTSATLGITGLQTGDEADYYCGTWDSSLSTYVFGTGTKVTVLGQPKAAPSVTLFPPSSEELQANKATLVCLISDFYPGAVTVAWKADSSPVKAGVETTTPSKQSNNKYAASSYLSLTPEQWKSHRSYSCQVTHEGSTVEKTVAPTECS
# notes: chimeric: human F(ab')2, mouse IgG2a CH2-CH3, recombinant
# B10: 18P01A(hIgG1) (antibody)
# heavy: not shown
# light: B9 light
# notes: fully human IgG1 lambda, expressed in CHO cells; also called Fully human 18P01A (hlgG1); fully human 18P01A
# B11: 17P04A(mIgG2a) (antibody)
# heavy: EVQLVESGGGLVKPGGSLRLSCAASGFTLSSFSMNWVRQAPGKGLEWVSSISSRRTYIYYADSAKGRFTFSRDNAKNSLYLQMNSLRAEDSAVYYCARGGYIGSPNAYDIWGQGTMVTVSSASTKGPSVFPLAPCSRSTSESTAALGCLVKDYFPEPVTVSWNSGALTSGVHTFPAVLQSSGLYSLSSVVTVPSSNFGTQTYTCNVDHKPSNTKVDKTVERKCPPCKCPAPNLLGGPSVFIFPPKIKDVLMISLSPIVTCVVVDVSEDDPDVQISWFVNNVEVHTAQTQTHREDYNSTLRVVSALPIQHQDWMSGKEFKCKVNNKDLPAPIERTISKPKGSVRAPQVYVLPPPEEEMTKKQVTLTCMVTDFMPEDIYVEWTNNGKTELNYKNTEPVLDSDGSYFMYSKLRVEKKNWVERNSYSCSVVHEGLHNHHTTKSFSRTPGK
# light: QTVVTQEPSLTVSPGGTVTLTCASSTGAVTSDYYPNWFQQKPGQAPRALIYSASTKHSWTPARFSGSLLGGKAALTLSGVQPEDEADYYCLLYYGGAWVFGGGTKLTVLGQPKAAPSVTLFPPSSEELQANKATLVCLISDFYPGAVTVAWKADSSPVKAGVETTTPSKQSNNKYAASSYLSLTPEQWKSHRSYSCQVTHEGSTVEKTVAPTECS
# notes: as for B9
# B12: 17P04A(hIgG1) (antibody)
# heavy: not shown
# light: B11 light
# notes: fully human IgG1 lambda, expressed in CHO cells; also called Fully human 17P04A (hlgG1)
# Experiments:
# [1] = biological target: T1, HiLyte488 labelled Aβ1-42 protofibrils (UniProt P05067 672-713, HiLyte488 fluorophore on part of the peptides (labelled and unlabelled Aβ1-42 monomers mixed 1:5)); test: cell-based or functional assay
# [2] = biological target: T2, Aβ1-42 (rPeptide, A-1167-2) (UniProt P05067 672-713); test: direct ELISA, coated Aβ1-42
# T2 construct: domain: Aβ1-42; also called Abeta 1-42
# Protocol: (§1) Direct ELISA was used to test each antibody's affinity for Aβ₁₋₄₂ and pyroglutamate-modified Aβ (Aβₚ₃₋₄₂). Plates were coated with 0.5 μM of Aβ₁₋₄₂ (rPeptide, A-1167-2) or Aβₚ₃₋₄₂ (AnaSpec, AS-29907-01) for 2 h at 4° C. Diluents of antibodies (3-fold serial dilutions with concentrations in the range of 0-100 nM) were added to the plate for 1 h at RT. Binding of antibody to immobilized Aβ on each plate was detected by HRP-labeled secondary antibody and TMB substrate, as described in Example 2.
# [3] = biological target: T3, biotin-labelled Aβ1-40 monomer (AnaSpec, AS-61483-01) (UniProt P05067 672-711, biotin label, position not stated); test: capture ELISA, coated antibody, biotin-Aβ1-40 monomer
# T3 construct: domain: Aβ1-40; also called biotin-conjugated Aβ40 monomer; biotin-Aβ monomer
# Protocol: (§2) A 96-well plate was coated with 5 μg/mL of antibodies overnight at RT. The plate was then treated with diluents of biotin-labelled Aβ₁₋₄₀ monomers (AnaSpec, AS-61483-01, 4-fold serial dilutions with concentrations in the range of 0-1000 nM) for 1 h at RT. The binding of biotin-labelled Aβ₁₋₄₀ monomers with immobilized antibody was detected by HRP-conjugated streptavidin and TMB, as described in Example 2.
# [4] = biological target: T1, HiLyte488 labelled Aβ1-42 protofibrils; test: cell-based or functional assay; remark: listed apart in the source
# [5] = biological target: T2, Aβ1-42 (rPeptide, A-1167-2); test: direct ELISA, coated Aβ1-42; remark: listed apart in the source
# [6] = biological target: T3, biotin-labelled Aβ1-40 monomer …; test: capture ELISA, coated antibody, biotin-Aβ1-40 monomer; remark: listed apart in the source
# Protocol: The plate was incubated for 1 h at RT and washed 3 times with PBST. The plate was then incubated with HRP-conjugated streptavidin (Thermo Fisher Scientific, SNN2004) at 1:5000 diluted in 1% BSA for 20 min at RT and washed 3 times. TMB Stabilized Chromogen substrate solution (Life Technologies, SB02) was added to the plate, and the reaction was stopped by adding 1M sulfuric acid. The absorbance at 450 nm was measured in a plate reader.
# as §2
# [7] = biological target: T2, Aβ1-42 (rPeptide, A-1167-2); test: direct ELISA, coated Aβ1-42; remark: listed apart in the source
# [8] = biological target: T2, Aβ1-42 (rPeptide, A-1167-2); test: direct ELISA, coated Aβ1-42; remark: listed apart in the source
# [9] = biological target: T4, pyroglutamate-modified Aβ (Aβp3-42) (AnaSpec, AS-29907-01) (UniProt P05067 674-713, pyroglutamate at Aβ position 3 (the N-terminus)); test: direct ELISA, coated Aβp3-42
# T4 construct: domain: Aβp3-42; also called Abeta p3-42
# [10] = biological target: T3, biotin-labelled Aβ1-40 monomer …; test: capture ELISA, coated antibody, biotin-Aβ1-40 monomer; remark: listed apart in the source
# [11] = biological target: T4, pyroglutamate-modified Aβ (Aβp3-42) …; test: direct ELISA, coated Aβp3-42; remark: listed apart in the source
# Protocol: After 3 washes with 1× Phosphate-Buffered Saline, 0.1% Tween 20 (PBST), each plate was blocked with 1% BSA in PBS for 1 h at room temperature (RT). Diluents of Aβ antibodies (3-fold serial dilutions with concentrations in the range of 0-100 nM) were added to plates. The plate was incubated for 1 h at RT and washed 3 times. The plate was then incubated with HRP conjugated goat anti-mouse IgG (Thermo Fisher Scientific, G-21040; thermofisher.com) 1:5000 diluted in 1% BSA for 1 h at RT and washed 3 times. TMB (3,3′,5,5;-tetramethylbenzidine) Stabilized Chromogen substrate solution (Life Technologies (Thermo Fisher Scientific) SB02) was added to the plate, and the reaction was stopped by adding 1M sulfuric acid. The absorbance at 450 nm was measured in a plate reader.
# as §1
Binder,ADCP (RFU) [1] [RFU],EC50 [2] [nM],EC50 [3] [nM],further results
B1,194000,0.075,0.34,
B2,273000,0.038,0.78,
B3,245000,0.042,0.02,
B4,126000,0.068,,
B5,279000,0.051,0.02,
B6,262000,0.048,0.01,
B7,257000,0.05,0.01,
B8,99100,0.075,0.07,
B9,,,,ADCP (RFU) [4]: 488000 RFU; EC50 [5]: 0.087 nM; EC50 [6]: 248 nM
B10,,,,fold increase of EC50 against the original chimeric 18P01A [7]: > 800 fold; EC50 [8]: 50 nM; EC50 [9]: 196 nM; EC50 [10]: 917 nM
B11,,,,ADCP (RFU) [4]: 375000 RFU; EC50 [5]: 0.057 nM; EC50 [11]: 19.4 nM; EC50 [6]: 59 nM
B12,,,,EC50 [8]: 0.062 nM; EC50 [9]: 38.7 nM; EC50 [10]: 33.8 nM
